Consider 36 molecules from patent publication US20200270588A1, “GLUCOSYL TRANSFERASE POLYPEPTIDES AND METHODS OF USE” (Syngenta Participations AG, priority 2017, published 2020).

Numbering of substitutions follows the chain as printed. Names may count otherwise.

First the molecules themselves.
B1: M135T: bx9 SEQ ID NO:1 mutant (protein)
chain: MASSRTGAGAGGRVVVFPFPFQGHFNPVMRLARALHARGLAITVFHSGALDPADYPADYRFVPVTVEADPKLLASEDIAAIVTTLNASCDAPFRARLSALLAAEGRDSVRCVFTDVSWNAVLTASSDLGVPALGTMTASAASLRDYMAYRTLIDKGYLPVKEERKEDPVPELPPYLVKDLLRVDTSDLEEFAELLARTVTAARRASGLIFNTFPLIETDTLAEIHKALSVPVFAVAPLNKLVPTATASLHGVVQADRGCLQWLDTQQPGSVLYVSFGSMAAMDPHEFVELAWGLADSKRPFVWVVRPNLIRGFESGALPDGVEDEVRGRGIVVAWAPQEEVLAHPAVGGFLTHNGWNSTVEAISEGVPMVCCPRHGDQFGNMRYVCDVWKVGTELVGEQLERGQVKAAIDRLFGTKEGEEIKERMKEFKIAAAKGIGIGVDVDETASPRTDLTDLVDLIKSF
modifications: Zea mays
B2: L194I: bx9 SEQ ID NO:1 mutant (protein)
chain: B1 chain with T135M, L194I
modifications: Zea mays
B3: A202L: bx9 SEQ ID NO:1 mutant (protein)
chain: B1 chain with T135M, A202L
modifications: Zea mays
B4: L194N: bx9 SEQ ID NO:1 mutant (protein)
chain: B1 chain with T135M, L194N
modifications: Zea mays
B5: F210W: bx9 SEQ ID NO:1 mutant (protein)
chain: B1 chain with T135M, F210W
modifications: Zea mays
B6: F210M: bx9 SEQ ID NO:1 mutant (protein)
chain: B1 chain with T135M, F210M
modifications: Zea mays
B7: L194C: bx9 SEQ ID NO:1 mutant (protein)
chain: B1 chain with T135M, L194C
modifications: Zea mays
B8: L194T: bx9 SEQ ID NO:1 mutant (protein)
chain: B1 chain with T135M, L194T
modifications: Zea mays
B9: L194V: bx9 SEQ ID NO:1 mutant (protein)
chain: B1 chain with T135M, L194V
modifications: Zea mays
B10: L194E: bx9 SEQ ID NO:1 mutant (protein)
chain: B1 chain with T135M, L194E
modifications: Zea mays
B11: I153C: bx9 SEQ ID NO:1 mutant (protein)
chain: B1 chain with T135M, I153C
modifications: Zea mays
B12: M135L: bx9 SEQ ID NO:1 mutant (protein)
chain: B1 chain with T135L
modifications: Zea mays
B13: I153T: bx9 SEQ ID NO:1 mutant (protein)
chain: B1 chain with T135M, I153T
modifications: Zea mays
B14: T220Q: bx9 SEQ ID NO:1 mutant (protein)
chain: B1 chain with T135M, T220Q
modifications: Zea mays
B15: T220G: bx9 SEQ ID NO:1 mutant (protein)
chain: B1 chain with T135M, T220G
modifications: Zea mays
B16: I153F: bx9 SEQ ID NO:1 mutant (protein)
chain: B1 chain with T135M, I153F
modifications: Zea mays
B17: I153Y: bx9 SEQ ID NO:1 mutant (protein)
chain: B1 chain with T135M, I153Y
modifications: Zea mays
B18: A202V: bx9 SEQ ID NO:1 mutant (protein)
chain: B1 chain with T135M, A202V
modifications: Zea mays
B19: I153Q: bx9 SEQ ID NO:1 mutant (protein)
chain: B1 chain with T135M, I153Q
modifications: Zea mays
B20: T198V: bx9 SEQ ID NO:1 mutant (protein)
chain: B1 chain with T135M, T198V
modifications: Zea mays
B21: I153K: bx9 SEQ ID NO:1 mutant (protein)
chain: B1 chain with T135M, I153K
modifications: Zea mays
B22: L195I: bx9 SEQ ID NO:1 mutant (protein)
chain: B1 chain with T135M, L195I
modifications: Zea mays
B23: T220D: bx9 SEQ ID NO:1 mutant (protein)
chain: B1 chain with T135M, T220D
modifications: Zea mays
B24: A202C: bx9 SEQ ID NO:1 mutant (protein)
chain: B1 chain with T135M, A202C
modifications: Zea mays
B25: I153R: bx9 SEQ ID NO:1 mutant (protein)
chain: B1 chain with T135M, I153R
modifications: Zea mays
B26: I153L: bx9 SEQ ID NO:1 mutant (protein)
chain: B1 chain with T135M, I153L
modifications: Zea mays
B27: A202M: bx9 SEQ ID NO:1 mutant (protein)
chain: B1 chain with T135M, A202M
modifications: Zea mays
B28: L194A: bx9 SEQ ID NO:1 mutant (protein)
chain: B1 chain with T135M, L194A
modifications: Zea mays
B29: L194Q: bx9 SEQ ID NO:1 mutant (protein)
chain: B1 chain with T135M, L194Q
modifications: Zea mays
B30: I153V: bx9 SEQ ID NO:1 mutant (protein)
chain: B1 chain with T135M, I153V
modifications: Zea mays
B31: V199N: bx9 SEQ ID NO:1 mutant (protein)
chain: B1 chain with T135M, V199N
modifications: Zea mays
B32: L194G: bx9 SEQ ID NO:1 mutant (protein)
chain: B1 chain with T135M, L194G
modifications: Zea mays
B33: M135C: bx9 SEQ ID NO:1 mutant (protein)
chain: B1 chain with T135C
modifications: Zea mays
B34: A202F: bx9 SEQ ID NO:1 mutant (protein)
chain: B1 chain with T135M, A202F
modifications: Zea mays
B35: L194D: bx9 SEQ ID NO:1 mutant (protein)
chain: B1 chain with T135M, L194D
modifications: Zea mays
B36: I153M: bx9 SEQ ID NO:1 mutant (protein)
chain: B1 chain with T135M, I153M
modifications: Zea mays

A short description of this test: UDP luminescence plate assay of E. coli extracts, saturation mutants of SEQ ID NO: 1, herbicide V. Type of test: biochemical, Zea mays. Particulars: improvement factor relative to w/t bx9 = 1.0, rounded to nearest 0.5; extract activity basis; compound V.
In the case of B1, the “Preferred amino acid substitutions and (IF) based on RLU/min/ul” value is reported as “T,C,L(1.0)”.
On to B2, for which the “Most Preferred amino acid substitutions and (IF) based on RLU/min/ul” value was 2.0.
Consider B3, for which the “Preferred amino acid substitutions and (IF) based on RLU/min/ul” value is reported as “T,I,V,L,F(1.5)”.
Regarding B4, the “Most Preferred amino acid substitutions and (IF) based on RLU/min/ul” value is given as “C,N,V(3.0)”.
With B5, the “Preferred amino acid substitutions and (IF) based on RLU/min/ul” value is recorded as “M,W(1.0)”.
With B6, the “Preferred amino acid substitutions and (IF) based on RLU/min/ul” value is “M,W(1.0)”.
Turning to B7, the “Most Preferred amino acid substitutions and (IF) based on RLU/min/ul” value was “C,N,V(3.0)”.
Turning to B8, the “Preferred amino acid substitutions and (IF) based on RLU/min/ul” value amounted to 1.5.
B9: the “Most Preferred amino acid substitutions and (IF) based on RLU/min/ul” value is “C,N,V(3.0)”.
Regarding B10, the “Preferred amino acid substitutions and (IF) based on RLU/min/ul” value amounted to 1.0.
The same measure, in the same setting: the same measure for B11: “T,C,K,V,L,M,Y(1.0);”; for B12: “T,C,L(1.0)”.
Same read-out and setting: the same measure for B13: “T,C,K,V,L,M,Y(1.0);”; for B14: “G,Q,D,V(1.0)”.
On the same count and under the same terms, the same measure for B15: “G,Q,D,V(1.0)”; for B16: “Q,R,F(1.5)”; for B17: “T,C,K,V,L,M,Y(1.0);”.
As for B18, the “Preferred amino acid substitutions and (IF) based on RLU/min/ul” value is given as “T,I,V,L,F(1.5)”.
On the same count and under the same terms, the value for B19 was “Q,R,F(1.5)”.
In the case of B20, the “Most Preferred amino acid substitutions and (IF) based on RLU/min/ul” value is given as “V(2.0)”.
As for B21, the “Preferred amino acid substitutions and (IF) based on RLU/min/ul” value is on record as “T,C,K,V,L,M,Y(1.0);”.
On the same count and under the same terms, the value for B22 was “I(1.0)”; that for B23 was “G,Q,D,V(1.0)”.
As to B24, the “Preferred amino acid substitutions and (IF) based on RLU/min/ul” value is “S,I,C,M(1.0)”.
On the same count and under the same terms, the value for B25 was “Q,R,F(1.5)”.
Still for that read-out and setting: the same measure for B26: “T,C,K,V,L,M,Y(1.0);”; for B27: “S,I,C,M(1.0)”.
For the molecule B28, the “Most Preferred amino acid substitutions and (IF) based on RLU/min/ul” value turned out to be 2.5.
Take B29: the “Preferred amino acid substitutions and (IF) based on RLU/min/ul” value came to 1.5.
As to B30, the “Preferred amino acid substitutions and (IF) based on RLU/min/ul” value was “T,C,K,V,L,M,Y(1.0);”.
Consider B31, for which the “Preferred amino acid substitutions and (IF) based on RLU/min/ul” value is recorded as “M,N(1.0)”.
The same measure, in the same setting: the value for B32 was 1.0.
As to B33, the “Preferred amino acid substitutions and (IF) based on RLU/min/ul” value is reported as “T,C,L(1.0)”.
Same read-out and setting: the same measure for B34: “T,I,V,L,F(1.5)”.
The same measure, in the same setting: the value for B35 was 1.0.
The same measure, in the same setting: the value for B36 was “T,C,K,V,L,M,Y(1.0);”.
